This is an account of results in PMC8778164, “Towards Complete Tumor Resection: Novel Dual-Modality Probes for Improved Image-Guided Surgery of GRPR-Expressing Prostate Cancer” (Pharmaceutics, 2022).

Series [1] can be described thus: Stability in PBS at 37 °C (iTLC). Type of series: physicochemical. The settings on record: intact labeled ligand after incubation at 37 °C in PBS, n = 1. As to the method:
(§1) Stability in PBS was determined by incubating 20 µL of the labeled compounds (∼11 MBq) in PBS (80 µL) at 37 °C. Radiochemical purity was determined by iTLC at 30 min, 1 h, 2 h and 4 h. Stability in the serum was carried out by adding 70 µL of the labeled compound (∼35 MBq) to 330 µL of mouse serum (Merck, Haarlerbergweg, The Netherlands). The mixture was incubated at 37 °C. At different time points (30 min, 1 h, 2 h and 4 h), an aliquot of the mixture (50 µL) was added to 50 µL ACN. The vial was vortexed and centrifuged at 10,000 rpm for 20 min and the supernatant was analyzed by iTLC.

Series [2] can be described thus: In vivo SPECT/CT imaging, VOI quantification. The settings on record: male, Balb/c nu/nu, mouse, tumor and kidneys (in vivo VOIs), iv, total radioactivity; from SPECT VOI %IA/mL, 2 h p.i., i.v., non-blocked, n = 3; read-out: Tumor-to-kidney ratio (SPECT). The method, then:
Seven-week-old male Balb/c nu/nu-specific and opportunistic pathogen-free (SOPF) mice (Janvier Labs, Le Genest-Saint-Isle, France) were housed in individually ventilated cages, with 4 mice per cage. Upon arrival, mice were acclimated for 1 week, with access to food and water ad libitum. […]
Mice (n = 3 per probe) were intravenously injected in the tail vein with 200 µL of Kolliphor® HS 15 (Merck, Haarlerbergweg, The Netherlands) in PBS (0.06 mg/mL) containing [^111In]In-12 (13.40 ± 0.76 MBq, ~670 pmol) or [^111In]In-15 (17.50 ± 1.78 MBq, ~875 pmol). […] The CT and registered, attenuation-corrected SPECT images were analyzed using PMOD (PMOD 3.9, Zurich, Switzerland) and quantification was performed by placing volumes of interest (VOIs) around the tumors and kidneys. An Eppendorf tube filled with a solution of indium-111 of a known activity was measured to determine the calibration factor. The total activity measured in the VOI was divided by the volume of all VOI pixel values and multiplied by the calibration factor to obtain the percentage of injected activity per volume unit (%IA/mL).

Series [3] in a line: Stability in mouse serum at 37 °C (iTLC). In kind it is in vitro ADME. The settings on record: for Stability in Mouse Serum (%) 30 min / Stability in Mouse Serum (%) 1 h / Stability in Mouse Serum (%) 2 h / Stability in Mouse Serum (%) 4 h: intact labeled ligand after incubation at 37 °C in mouse serum, n = 1; for Protein-Bound Fraction at 4 h (%): mouse serum. As to the method:
as §1

For series [4], the system named is PC-3-xenograft Balb/c nu/nu mice. The series can be described thus: Ex vivo biodistribution after SPECT/CT scanning. Type of series: in vivo, mouse. The settings on record: radioactivity, ~3 h p.i. The method, then: Seven-week-old male Balb/c nu/nu-specific and opportunistic pathogen-free (SOPF) mice (Janvier Labs, Le Genest-Saint-Isle, France) were housed in individually ventilated cages, with 4 mice per cage. Upon arrival, mice were acclimated for 1 week, with access to food and water ad libitum. Mice were subcutaneously inoculated on the right shoulder with PC-3 cells (5 × 10^6 cells suspended in 100 µL of 1/3 Matrigel (Corning Inc., Corning, NY, USA) and 2/3 Hank’s balanced salt solution (Gibco). PC-3 xenografts were allowed to grow for 3 weeks. Tumor sizes were 391 ± 173 mm^3 at the start of the studies. All animal experiments were approved by the Animal Welfare Committee of the Erasmus MC and were conducted in agreement with institutional guidelines (license number: AVD101002017867, 28 September 2017).
To determine the biodistribution of the compounds after imaging (~3 h p.i.), blood was collected via cardiac puncture under isoflurane/O2 anesthesia, after which the mice were sacrificed. The tumor and organs of interest (prostate, pancreas, spleen, liver, GI tract (stomach, small intestine, cecum, large intestine), kidneys, lungs, heart, muscle, bone, and brain) were excised, washed in PBS and blotted dry. The stomach, intestines and cecum were emptied of their contents. The tumor was cut in half; one half was fresh-frozen for further analysis and the other half was collected for ex vivo optical imaging and radioactivity measurements. After imaging, the blood, tumor, and relevant organs were weighed and measured in a γ-counter. To determine the total injected radioactivity per animal, samples of the injected solutions were measured as well. The percentage of injected dose per gram (%ID/g) was determined for each tissue sample and corrected for both the injected volume and %ID present at the injection site (the tail). Because the low weight of the prostate limited accurate organ weight measurements, the average prostate weight of all animals was used.

The mark [5] stands for this setting: blocked with 150 nmol unlabeled NeoB, n = 1.

For `CC(C)CC(CC(C)C)NC(=O)[C@H](Cc1c[nH]cn1)NC(=O)CNC(=O)[C@@H](NC(=O)[C@H](C)NC(=O)[C@H](Cc1c[nH]c2ccccc12)NC(=O)[C@H](CCC(N)=O)NC(=O)[C@@H](Cc1ccccc1)NC(=O)CCOCCOCCOCCOCCNC(=O)[C@H](CCCCNC(=O)OC1CCCC2C=NN=C(c3ccc(CNC(=O)CCCCC[N+]4=C(/C=C/C=C/C=C5N(C)c6ccc(S(=O)(=O)O)cc6C5(C)C)C(C)(C)c5cc(S(=O)(=O)[O-])ccc54)cc3)C2CC1)NC(=O)CN1CCN(CC(=O)O)CCN(CC(=O)O)CCN(CC(=O)O)CC1)C(C)C` (some centres unmarked) [[^111In]In-15, metal not drawn], in series [1], the “Stability in PBS (%) 30 min” value was 83.0%, the “Stability in PBS (%) 1 h” value amounted to 71.8%, the “Stability in PBS (%) 2 h” value is given as 67.0% and the “Stability in PBS (%) 4 h” value worked out at 57.1%. For the same compound, the tissue to tissue ratio at 2 h in series [2] was determined as 0.49 ± 0.05. In addition, in series [3], the “Stability in Mouse Serum (%) 30 min” value is recorded as 96.9%, the “Stability in Mouse Serum (%) 1 h” value was 96.7%, the “Stability in Mouse Serum (%) 2 h” value came to 96.9% and the “Stability in Mouse Serum (%) 4 h” value was 97.1%. Further, the “Protein-Bound Fraction at 4 h (%)” value in series [3] is 6.5%. Further, in series [4] (setting [5]), the Tumor-to-blood ratio is listed as 0.32 and the Tumor-to-prostate ratio is 3.09. Moreover, in series [4] (non-blocked, n = 3), the Tumor-to-prostate ratio worked out at 2.16 ± 0.46.
Take `CC(C)CC(CC(C)C)NC(=O)[C@H](Cc1c[nH]cn1)NC(=O)CNC(=O)[C@@H](NC(=O)[C@H](C)NC(=O)[C@H](Cc1c[nH]c2ccccc12)NC(=O)[C@H](CCC(N)=O)NC(=O)[C@@H](Cc1ccccc1)NC(=O)COCC(=O)Nc1ccc(CNC(=O)[C@H](CCCCNC(=O)CCOCCOCCOCCOCCNC(=O)OC2CCCC3C=NN=C(c4ccc(CNC(=O)CCCCC[N+]5=C(/C=C/C=C/C=C6N(C)c7ccc(S(=O)(=O)O)cc7C6(C)C)C(C)(C)c6cc(S(=O)(=O)[O-])ccc65)cc4)C3CC2)NC(=O)CN2CCN(CC(=O)O)CCN(CC(=O)O)CCN(CC(=O)O)CC2)cc1)C(C)C` (some centres unmarked) [[^111In]In-12, metal not drawn]: in series [1], the “Stability in PBS (%) 30 min” value amounted to 85.8%, the “Stability in PBS (%) 1 h” value was determined as 80.1%, the “Stability in PBS (%) 2 h” value is given as 75.0% and the “Stability in PBS (%) 4 h” value worked out at 73.1%. For the same compound, the tissue to tissue ratio at 2 h in series [2] was found to be 0.47 ± 0.05. In series [3], the “Stability in Mouse Serum (%) 30 min” value is reported as 96.3%, the “Stability in Mouse Serum (%) 1 h” value is reported as 96.4%, the “Stability in Mouse Serum (%) 2 h” value was found to be 96.5% and the “Stability in Mouse Serum (%) 4 h” value worked out at 96.5%. The “Protein-Bound Fraction at 4 h (%)” value in series [3] stood at 7.0%. In series [4] (setting [5]), the Tumor-to-blood ratio was 0.37 and the Tumor-to-prostate ratio stood at 0.62. Further, the Tumor-to-prostate ratio in series [4] (non-blocked, n = 3) is 2.86 ± 1.58.
